Reference: the supplement of paper PMC6757056
± gives the standard deviation of the averaged measurements.

B1: library; a variant is named by its letters at N, in order (parent)
chain: GCUGUCACCGGUGCUUGGUACGUUAUAUUCAGCCGGUCUGAUGAGUCUNNNNNNAGACGAAACAGC

Assays:
[1] = variants of: B1; test: normalized RNA/DNA level without ligand (relative to sTRSVctl = 100) (log10 (% of sTRSVctl)); HEK293T overexpressing SLC46A1; higher = less ribozyme self-cleavage, higher mRNA level; conditions: without (6R,S)-folinic acid; ligand present: no
Method in brief: (§1)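 Total RNA, extracted with EDTA 72 h after HEK293T cells were transfected with 4 µg per 6-well well of reporter-linked ribozyme switch library plasmids, was reverse-transcribed, amplified, barcoded and sequenced. Ligand, if used, was added 1 h before transfection. RNA level was derived from RNA reads divided by DNA reads and normalized to a spiked-in non-cleaving sequence or to the top sequences. This was multiplied by 100 and log10-transformed, with the top set of 25 sequences and a ≥100 DNA read minimum.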

[2] = variants of: B1; test: normalized RNA/DNA level with ligand (relative to sTRSVctl = 100) (log10 (% of sTRSVctl)); HEK293T overexpressing SLC46A1; ligand concentration (+) RNA-Seq: 6 mM; higher = less ribozyme self-cleavage, higher mRNA level; conditions: with (6R,S)-folinic acid; ligand present: yes
Method in brief: as §1

Variant | normalized RNA/DNA level without ligand (log10) [1] | normalized RNA/DNA level with ligand (log10) [2]
AGUCUC | 2.03 ± 0.016 | 2.02 ± 0.041
UGUUCU | 2.031 ± 0.0043 | 2.08 ± 0.035
UGUUCA | 1.991 ± 0.012 | 2.0188 ± 0.0011
UGUUCG | 1.761 ± 0.017 | 1.96 ± 0.031
UGUUAU | 1.95 ± 0.028 | 1.975 ± 0.0073
GGGUCU | 2.064 ± 0.0032 | 2.06 ± 0.018
GGGUCC | 2.05 ± 0.022 | 2.06 ± 0.04
CGUACG | 2.018 ± 0.011 | 2.0285 ± 0.0013
CGUACA | 2.01 ± 0.0077 | 2.041 ± 0.02
CGUACC | 2.1 ± 0.0079 | 2.021 ± 0.016
CGUACU | 2.0544 ± 0.00062 | 2.043 ± 0.0063
AGUAGA | 1.943 ± 0.0031 | 2.018 ± 0.0096
AGUAGG | 1.897 ± 0.0057 | 2.02 ± 0.021
AGUAGC | 1.986 ± 8.8e-05 | 2 ± 0.039
AGUAGU | 1.943 ± 0.0095 | 2.012 ± 0.019
CGUAAC | 1.98 ± 0.025 | 1.99 ± 0.043
CGUAAG | 2.011 ± 0.0091 | 2.03 ± 0.018
GGUUCU | 2.0626 ± 0.0019 | 2.05 ± 0.049
GGUUCA | 1.99 ± 0.02 | 2 ± 0.036
GGUUCC | 2.028 ± 0.018 | 2.03 ± 0.037
GGUUCG | 2.0485 ± 5.4e-05 | 2.06 ± 0.048
AGUGCG | 1.849 ± 0.017 | 2.01 ± 0.062
AGUGCU | 2.01 ± 0.0069 | 2.03 ± 0.027
AGUGCA | 1.97 ± 0.025 | 1.996 ± 0.016

Variant | normalized RNA/DNA level without ligand (log10) [1] | normalized RNA/DNA level with ligand (log10) [2]
AGUGCC | 2.072 ± 0.014 | 2.07 ± 0.035
UGUGUC | 2.041 ± 0.019 | 2.004 ± 0.012
UGUGUU | 1.907 ± 0.019 | 1.966 ± 0.019
AGUGUA | 1.942 ± 0.007 | 2 ± 0.05
AGUGUU | 2.026 ± 0.011 | 2.04 ± 0.027
AGUGUG | 1.78 ± 0.018 | 1.97 ± 0.01
AGUGUC | 2.054 ± 0.0091 | 2 ± 0.046
AGUGGG | 1.921 ± 0.019 | 2.04 ± 0.035
AGUGGC | 2.042 ± 0.01 | 2.04 ± 0.06
AGUGGU | 1.95 ± 0.013 | 2.02 ± 0.049
GGUGUG | 1.98 ± 0.014 | 2.04 ± 0.034
GGUGUU | 2.029 ± 0.0064 | 2.02 ± 0.041
GGUGUA | 1.972 ± 0.01 | 2.01 ± 0.02
GGUGUC | 2.051 ± 0.019 | 2.01 ± 0.028
CGGUCG | 2.042 ± 0.0075 | 2.04 ± 0.021
CGGUCU | 2.1 ± 0.035 | 2.05 ± 0.049
CGGUCC | 2.066 ± 0.013 | 2.03 ± 0.033
GGUCCC | 2.043 ± 0.016 | 2.01 ± 0.027
GGUCCU | 2.09 ± 0.0075 | 2.09 ± 0.062
GGUCCG | 2.04 ± 0.018 | 2.03 ± 0.03
GGUGGU | 2.053 ± 0.016 | 2.03 ± 0.031
GGUGGG | 2.034 ± 0.014 | 2.059 ± 0.017
GGUGGC | 1.98 ± 0.023 | 2.02 ± 0.037
AGGUUG | 2.005 ± 0.013 | 2.04 ± 0.053

Variant | normalized RNA/DNA level without ligand (log10) [1] | normalized RNA/DNA level with ligand (log10) [2]
AGGUUC | 2.02 ± 0.024 | 2.03 ± 0.045
GUAAAG | 1.94 ± 0.015 | 2 ± 0.027
UGGUGC | 2.02 ± 0.03 | 2.02 ± 0.044
UGUAGA | 1.84 ± 0.021 | 2.002 ± 0.017
UGUAGU | 1.903 ± 0.015 | 2.06 ± 0.059
CGUCCC | 2.003 ± 0.0083 | 1.95 ± 0.037
CGUCCU | 2.11 ± 0.011 | 2.06 ± 0.031
CGUCCA | 2.0366 ± 0.0014 | 2.02 ± 0.035
CGUCCG | 2.04 ± 0.026 | 2.037 ± 0.015
AUAACG | 1.9455 ± 0.0011 | 2.02 ± 0.033
UGUCGC | 1.966 ± 0.0063 | 2.024 ± 0.0019
UGUCGA | 1.904 ± 0.0056 | 1.994 ± 0.013
AGUAUU | 2 ± 0.011 | 2.032 ± 0.018
AGUAUA | 1.9846 ± 0.0011 | 2.02 ± 0.0084
AGUAUC | 2.059 ± 0.0016 | 2.03 ± 0.0073
AGUCCU | 2.048 ± 0.0074 | 2.05 ± 0.029
AGUCCA | 2.022 ± 0.0089 | 2.0202 ± 0.002
AGUCCG | 1.988 ± 0.0076 | 2 ± 0.025
AGUCCC | 2.019 ± 0.0039 | 2.046 ± 0.0072
GGUACC | 2.067 ± 0.015 | 2.03 ± 0.04
GGUACG | 2.025 ± 0.017 | 2.04 ± 0.049
GGUACU | 2.063 ± 0.0044 | 2.04 ± 0.022
CGGUGG | 1.93 ± 0.024 | 1.99 ± 0.026
CGGUGC | 2.053 ± 0.0063 | 2.007 ± 0.0042

Variant | normalized RNA/DNA level without ligand (log10) [1] | normalized RNA/DNA level with ligand (log10) [2]
CGGUGA | 2.029 ± 0.014 | 2.04 ± 0.043
GGUUUC | 2.021 ± 0.011 | 1.9966 ± 0.0012
GGUUUA | 2.009 ± 0.018 | 1.98 ± 0.03
GGUUUU | 2 ± 0.021 | 1.99 ± 0.033
UUAAAU | 1.974 ± 0.0099 | 2.01 ± 0.024
UUAACC | 2.016 ± 0.0049 | 2 ± 0.025
UUAACG | 1.934 ± 0.018 | 1.984 ± 0.019
UUAACU | 2.041 ± 0.0026 | 2.018 ± 0.0049
UUAACA | 1.998 ± 0.0047 | 1.971 ± 0.01
AGUAAG | 1.897 ± 0.0041 | 2.01 ± 0.057
AGUAAU | 1.99 ± 0.02 | 2 ± 0.026
AGUAAC | 2.003 ± 0.0042 | 2.01 ± 0.026
AGUGAA | 1.933 ± 0.0071 | 1.99 ± 0.033
AGUGAC | 2.006 ± 0.0076 | 1.99 ± 0.04
AGUGAG | 1.767 ± 0.0046 | 1.96 ± 0.028
UGUUGC | 1.98 ± 0.024 | 2.059 ± 0.0084
UGUUGU | 1.9049 ± 9.7e-05 | 2 ± 0.027
AGGUCG | 1.985 ± 0.013 | 2.05 ± 0.043
AGGUCA | 1.967 ± 0.014 | 2.01 ± 0.047
AGGUCU | 2.043 ± 0.0045 | 2 ± 0.021
CGUCGA | 2.012 ± 0.0023 | 2.019 ± 0.019
CGUCGC | 2.06 ± 0.037 | 2 ± 0.092
CGUCGU | 2.04 ± 0.032 | 2 ± 0.03
CGUCGG | 2.01 ± 0.026 | 2.08 ± 0.049

Variant | normalized RNA/DNA level without ligand (log10) [1] | normalized RNA/DNA level with ligand (log10) [2]
UGUAUA | 1.953 ± 0.0013 | 2.01 ± 0.022
CGUUCG | 2.0527 ± 1.7e-05 | 2.04 ± 0.047
CGUUCA | 2.024 ± 0.004 | 2.044 ± 0.017
CGUUCC | 2.07 ± 0.026 | 2.028 ± 0.017
CGUUCU | 2.07 ± 0.034 | 2.03 ± 0.034
AGGUGC | 2.0042 ± 0.0006 | 2.01 ± 0.044
GGGUGU | 2.025 ± 0.011 | 2.06 ± 0.049
GGGUGG | 2.056 ± 0.0092 | 2.04 ± 0.043
UGUUUC | 2.063 ± 0.0072 | 2.04 ± 0.027
UGUUUA | 1.978 ± 0.0041 | 2.055 ± 0.0056
CGUCAA | 1.98 ± 0.022 | 1.974 ± 0.018
CGUCAC | 2.032 ± 0.0083 | 1.99 ± 0.049
CGUCAG | 2.001 ± 0.013 | 2.057 ± 0.013
CGUCAU | 2.01 ± 0.047 | 2 ± 0.021
UGUCAG | 1.771 ± 0.011 | 2 ± 0.026
UGUCAC | 2.03 ± 0.015 | 2.01 ± 0.021
UGUCAU | 1.955 ± 0.0075 | 2 ± 0.034
UGUCAA | 1.968 ± 0.018 | 2.002 ± 0.014
UGUGGC | 1.97 ± 0.022 | 2.019 ± 0.0063
CUAAGA | 2.017 ± 0.0036 | 2 ± 0.04
